Here are results for two molecules from publication PMC4843017 (2016).

Experiment [1] has as its target T1, taxol-stabilized microtubules (α-/β-tubulin) (bovine, UniProt P81947 1-451; Q6B856 1-445).
The target of experiment [2] is T1, taxol-stabilized microtubules …. The source holds these as a separate data set.

Like-named read-outs stand apart in the source and are kept apart here.

T1 sequence (P81947 whole entry, chain 1 of 2): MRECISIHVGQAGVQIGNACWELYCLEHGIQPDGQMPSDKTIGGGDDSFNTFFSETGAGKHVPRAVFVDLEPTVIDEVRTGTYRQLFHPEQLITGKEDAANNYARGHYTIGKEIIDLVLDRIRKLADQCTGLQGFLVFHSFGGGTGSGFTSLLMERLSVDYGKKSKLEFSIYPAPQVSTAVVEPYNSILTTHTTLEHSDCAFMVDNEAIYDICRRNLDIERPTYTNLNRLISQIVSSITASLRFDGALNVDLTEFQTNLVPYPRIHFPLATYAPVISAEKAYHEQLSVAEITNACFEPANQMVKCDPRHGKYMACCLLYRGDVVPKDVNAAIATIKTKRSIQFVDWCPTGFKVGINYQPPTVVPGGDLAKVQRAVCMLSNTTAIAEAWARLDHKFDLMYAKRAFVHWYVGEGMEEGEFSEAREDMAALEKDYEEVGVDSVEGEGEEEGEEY
T1 sequence (Q6B856 whole entry, chain 2 of 2): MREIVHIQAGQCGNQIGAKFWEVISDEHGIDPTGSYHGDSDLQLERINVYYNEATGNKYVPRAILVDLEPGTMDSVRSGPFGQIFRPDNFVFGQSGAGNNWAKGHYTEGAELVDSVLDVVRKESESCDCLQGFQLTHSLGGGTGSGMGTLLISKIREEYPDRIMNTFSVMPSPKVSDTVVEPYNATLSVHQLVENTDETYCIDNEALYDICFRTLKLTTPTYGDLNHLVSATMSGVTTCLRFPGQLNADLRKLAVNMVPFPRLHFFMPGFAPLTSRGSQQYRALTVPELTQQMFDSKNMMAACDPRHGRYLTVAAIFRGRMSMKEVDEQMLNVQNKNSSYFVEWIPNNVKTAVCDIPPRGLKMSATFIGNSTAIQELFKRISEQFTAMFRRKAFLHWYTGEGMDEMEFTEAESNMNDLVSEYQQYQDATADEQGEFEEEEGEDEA

B1: SKAP^159–316 (expressed alone in E. coli) (domain or fragment)
chain: VRKGYKPLSKQKSEEELKDKNQLLEAVNKQLHQKLTETQGELKDLTQKVELLEKFRDNCLAILESKGLDPALGSETLASRQESTTDHMDSMLLLETLQEELKLFNETAKKQMEELQALKVKLEMKEERVRFLEQQTLCNNQVNDLTTALKEMEQLLEM
The Kd is the constant that tells how readily two partners part at equilibrium. A high value points to weaker binding. Turning to B1, the Kd in experiment [1] stood at 1620 nM.

B2: SKAP^103–225 (domain or fragment)
chain: TQTRATSKSLLPVRSKEVDVSKQLHSGGPENDVTKITKLRRENGQMKATDTATRRNVRKGYKPLSKQKSEEELKDKNQLLEAVNKQLHQKLTETQGELKDLTQKVELLEKFRDNCLAILESKG
As to B2, the Kd in experiment [2] was 1100 nM.
